Measurements as given in the supplement of paper PMC10567573.

B1: PTPLAD1 (parent)
chain: YSFYMLTCIDMDWKVLTWLRYTLW

Variants of: B1
Test: protein stability index of a GFP-peptide fusion (GPS, HEK-293T) (PSI 1-6); higher = more stable
Details: c terminus: a fixed tail appended
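Further: lentivirally expressed fusions sorted by FACS into six bins by GFP to DsRed ratio, PSI derived from sequencing read proportions per bin multiplied by bin number.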

In order of falling protein stability index:
1. YSFCMLTCIDMDWKVLTWLRYTLW [Y4C]  4.29
2. YSFNMLTCIDMDWKVLTWLRYTLW [Y4N]  3.92
3. YSFYMLQCIDMDWKVLTWLRYTLW [T7Q]  3.88
4. YSIYMLTCIDMDWKVLTWLRYTLW [F3I]  3.74
5. YSFIMLTCIDMDWKVLTWLRYTLW [Y4I]  3.63
6. YSFYMLYCIDMDWKVLTWLRYTLW [T7Y]  3.62
7. YSFYMLTCIDMDIKVLTWLRYTLW [W13I]  3.42
8. YSYYMLTCIDMDWKVLTWLRYTLW [F3Y]  3.36
9. WSFYMLTCIDMDWKVLTWLRYTLW [Y1W]  3.32
10. YSFYMLTGIDMDWKVLTWLRYTLW [C8G]  3.31
11. YSQYMLTCIDMDWKVLTWLRYTLW [F3Q]  3.31
12. YSFYMLTCIDMDGKVLTWLRYTLW [W13G]  3.3
13. YSFYMLFCIDMDWKVLTWLRYTLW [T7F]  3.29
14. YSFYMLECIDMDWKVLTWLRYTLW [T7E]  3.27
15. YSFYMLTIIDMDWKVLTWLRYTLW [C8I]  3.23
16. YSFYMLHCIDMDWKVLTWLRYTLW [T7H]  3.17
17. YSMYMLTCIDMDWKVLTWLRYTLW [F3M]  3.14
18. YSFYMLTCIDMKWKVLTWLRYTLW [D12K]  3.14
19. YSFLMLTCIDMDWKVLTWLRYTLW [Y4L]  3.13
20. YSFHMLTCIDMDWKVLTWLRYTLW [Y4H]  3.11
21. YSFYMLTKIDMDWKVLTWLRYTLW [C8K]  3.09
22. YSFYMLTCIDMDPKVLTWLRYTLW [W13P]  3.04
23. YSFYMLTQIDMDWKVLTWLRYTLW [C8Q]  3.01
24. YSFGMLTCIDMDWKVLTWLRYTLW [Y4G]  2.99
25. YSFYMLTNIDMDWKVLTWLRYTLW [C8N]  2.97
26. YSFYMLPCIDMDWKVLTWLRYTLW [T7P]  2.94
27. YSFYMLTAIDMDWKVLTWLRYTLW [C8A]  2.9
28. YSFYMLICIDMDWKVLTWLRYTLW [T7I]  2.86
29. YSFYMLTLIDMDWKVLTWLRYTLW [C8L]  2.85
30. YSFYMLNCIDMDWKVLTWLRYTLW [T7N]  2.85
31. YSFYMLDCIDMDWKVLTWLRYTLW [T7D]  2.73
32. YSFYMLTCIDMDFKVLTWLRYTLW [W13F]  2.73
33. YSFPMLTCIDMDWKVLTWLRYTLW [Y4P]  2.72
34. YSFYMLTCIDMDLKVLTWLRYTLW [W13L]  2.72
35. YSFYMLTCIDMEWKVLTWLRYTLW [D12E]  2.68
36. YSFYMLACIDMDWKVLTWLRYTLW [T7A]  2.65
37. YSFYMLTCIDMNWKVLTWLRYTLW [D12N]  2.65
38. YSFYMLTSIDMDWKVLTWLRYTLW [C8S]  2.62
39. YSSYMLTCIDMDWKVLTWLRYTLW [F3S]  2.61
40. YSFYMLTCIDMDEKVLTWLRYTLW [W13E]  2.56
41. YSFYMLTWIDMDWKVLTWLRYTLW [C8W]  2.54
42. YSFFMLTCIDMDWKVLTWLRYTLW [Y4F]  2.53
43. YSFMMLTCIDMDWKVLTWLRYTLW [Y4M]  2.53
44. YSFYMLTTIDMDWKVLTWLRYTLW [C8T]  2.51
45. YSPYMLTCIDMDWKVLTWLRYTLW [F3P]  2.51
46. YSFYMLKCIDMDWKVLTWLRYTLW [T7K]  2.49
47. YSFYMLTFIDMDWKVLTWLRYTLW [C8F]  2.48
48. YSFYMLLCIDMDWKVLTWLRYTLW [T7L]  2.43
49. YSFYMLRCIDMDWKVLTWLRYTLW [T7R]  2.4
50. YSAYMLTCIDMDWKVLTWLRYTLW [F3A]  2.37
51. YSWYMLTCIDMDWKVLTWLRYTLW [F3W]  2.37
52. YSFVMLTCIDMDWKVLTWLRYTLW [Y4V]  2.36
53. YSFAMLTCIDMDWKVLTWLRYTLW [Y4A]  2.33
54. YSEYMLTCIDMDWKVLTWLRYTLW [F3E]  2.31
55. YSFRMLTCIDMDWKVLTWLRYTLW [Y4R]  2.28
56. YSFYMLTEIDMDWKVLTWLRYTLW [C8E]  2.25
57. YSGYMLTCIDMDWKVLTWLRYTLW [F3G]  2.24
58. YSFYMLTCIDMFWKVLTWLRYTLW [D12F]  2.23
59. YSCYMLTCIDMDWKVLTWLRYTLW [F3C]  2.18
60. YSFYMLTCIDMRWKVLTWLRYTLW [D12R]  2.18
61. YSFYMLSCIDMDWKVLTWLRYTLW [T7S]  2.16
62. YSFYMLTCIDMGWKVLTWLRYTLW [D12G]  2.15
63. YSFWMLTCIDMDWKVLTWLRYTLW [Y4W]  2.12
64. YSFYMLTHIDMDWKVLTWLRYTLW [C8H]  2.1
65. YSFYMLTCIDMLWKVLTWLRYTLW [D12L]  2.09
66. YSFKMLTCIDMDWKVLTWLRYTLW [Y4K]  2.05
67. YSFYMLMCIDMDWKVLTWLRYTLW [T7M]  2.02
68. YSFYMLTDIDMDWKVLTWLRYTLW [C8D]  2
69. YSDYMLTCIDMDWKVLTWLRYTLW [F3D]  2
70. YSFDMLTCIDMDWKVLTWLRYTLW [Y4D]  1.99
71. YSFQMLTCIDMDWKVLTWLRYTLW [Y4Q]  1.98
72. YSFYMLTCIDMYWKVLTWLRYTLW [D12Y]  1.95
73. YSFYMLTCIDMPWKVLTWLRYTLW [D12P]  1.94
74. YSHYMLTCIDMDWKVLTWLRYTLW [F3H]  1.93
75. YSFYMLTCIDMTWKVLTWLRYTLW [D12T]  1.91
76. YSFTMLTCIDMDWKVLTWLRYTLW [Y4T]  1.86
77. YSFYMLTCIDMIWKVLTWLRYTLW [D12I]  1.82
78. YSFYMLTCIDMWWKVLTWLRYTLW [D12W]  1.82
79. YSFYMLTCIDMVWKVLTWLRYTLW [D12V]  1.79
80. YSFEMLTCIDMDWKVLTWLRYTLW [Y4E]  1.77
81. YSFSMLTCIDMDWKVLTWLRYTLW [Y4S]  1.77
82. YSFYMLTCIDMHWKVLTWLRYTLW [D12H]  1.75
83. YSFYMLTMIDMDWKVLTWLRYTLW [C8M]  1.73
84. YSFYMLTPIDMDWKVLTWLRYTLW [C8P]  1.7
85. YSKYMLTCIDMDWKVLTWLRYTLW [F3K]  1.69
86. YSTYMLTCIDMDWKVLTWLRYTLW [F3T]  1.68
87. YSFYMLTCIDMCWKVLTWLRYTLW [D12C]  1.65
88. YSFYMLTCIDMAWKVLTWLRYTLW [D12A]  1.63
89. YSFYMLTCIDMMWKVLTWLRYTLW [D12M]  1.51
90. YSNYMLTCIDMDWKVLTWLRYTLW [F3N]  1.46
91. YSFYMLTRIDMDWKVLTWLRYTLW [C8R]  1.42
92. YSFYMLGCIDMDWKVLTWLRYTLW [T7G]  1.4
93. YSFYMLVCIDMDWKVLTWLRYTLW [T7V]  1.27
94. YSLYMLTCIDMDWKVLTWLRYTLW [F3L]  1.03
